# ± gives the uncertainty stated by the source.
# Assay: self-splicing fitness, log relative to wild type (ln ratio); higher = more splicing; Tetrahymena group I intron in knt gene, E. coli kanamycin selection, DiMSum; sequences stand for … in CUCUCU…GGAGGGAAAAGUUAUCAGGCAUGCACCUGGUAGCUAGUCUUUAAACCAAUAGAUUGCAUCGGUUUAAAAGGCAAGACCGUCAAAUUGCGGGAAAGGGGUCAACAGCCGUUCAGUACCAAGUCUCAGGGGAAACUUUGAGAUGGCCUUGCAAAGGGUAUGGUAAUAAGCUGACGGACAUGGUCCUAACCACGCAGCCAAGUCCUAAGUCAACAGAUCUUCUGUUGAUAUGGAUGCAGUUCACAGACUAAAUGUCGGUCGGGGAAGAUGUAUUCUUCUCAUAAGAUAUAGUCGGACCUCUCCUUAAUGGGAGCUAGCGGAUGAAGUGAUGCAACACUGGAGCCGCUGGGAACUAAUUUGUAUGCGAAAGUAUAUUGAUUAGUUUUGGAGUACUCGUGGUCG
# How it was run: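 Six replicate transformations of E. coli BL21(DE3) with a pET-22b(+) library were grown overnight at 37°C or 30°C. The library randomised all eight P1ex-region intron nucleotides, the intron lying in the knt kanamycin-resistance gene, and plates were LB agar with or without 25 μg/mL kanamycin plus 100 μg/mL carbenicillin, 50 μM IPTG and 0.2% rhamnose. Pooled colonies were amplicon-sequenced on an Illumina HiSeq 2500, and fitness is the DiMSum error-weighted combination of wild-type-normalised replicate fold changes, kanamycin versus none.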
Sequence,self-splicing fitness (ln) (30 °C),self-splicing fitness (ln) (37 °C)
CUGGAGCAAUAUUACGCCGA,-1.18 ± 0.34,
CUGGAGCAAUAUUACGCGCG,-2.2 ± 0.14,-0.917 ± 0.13
CUGGAGCAAUAUUACGCGUC,-3.41 ± 0.27,-1.76 ± 0.27
CUGGAGCAAUAUUACGCUCA,-3.4 ± 0.36,-0.5 ± 0.3
CUGGAGCAAUAUUACGCUUU,-3.02 ± 0.32,-3.22 ± 0.47
CUGGAGCAAUAUUACGGAAC,-3.5 ± 0.33,-2.64 ± 0.3
CUGGAGCAAUAUUACGGACU,-3.12 ± 0.25,-2.07 ± 0.46
CUGGAGCAAUAUUACGGCAU,-3.26 ± 0.47,
CUGGAGCAAUAUUACGGCUA,,-1.11 ± 0.47
CUGGAGCAAUAUUACGGGAG,-3.19 ± 0.28,-0.913 ± 0.19
CUGGAGCAAUAUUACGGGCA,-1.06 ± 0.38,
CUGGAGCAAUAUUACGGUGC,-3.49 ± 0.48,
CUGGAGCAAUAUUACGUAAC,-3.25 ± 0.32,-1.86 ± 0.3
CUGGAGCAAUAUUACGUGCU,-2.27 ± 0.23,-2.91 ± 0.34
CUGUAGCAAUAUUACGAAAG,-1.61 ± 0.1,-0.788 ± 0.14
CUGUAGCAAUAUUACGACAG,-4.61 ± 0.3,-1.97 ± 0.21
CUGUAGCAAUAUUACGACGU,-1.13 ± 0.21,-1.54 ± 0.26
CUGUAGCAAUAUUACGAGGA,-2.78 ± 0.41,-1.62 ± 0.32
CUGUAGCAAUAUUACGCAAU,-2.63 ± 0.36,-1.99 ± 0.25
CUGUAGCAAUAUUACGCAGG,-3.56 ± 0.27,-2.73 ± 0.2
CUGUAGCAAUAUUACGCGAA,-1.86 ± 0.35,-2.26 ± 0.45
CUGUAGCAAUAUUACGCUCG,-1 ± 0.18,-0.773 ± 0.25
CUGUAGCAAUAUUACGCUUA,-3.24 ± 0.37,-3.24 ± 0.43
CUGUAGCAAUAUUACGGGUU,-3.94 ± 0.23,-3.13 ± 0.31
CUGUAGCAAUAUUACGGUCU,-3.53 ± 0.14,-2.96 ± 0.21
CUGUAGCAAUAUUACGGUUU,-4.11 ± 0.26,-2.69 ± 0.32

Sequence,self-splicing fitness (ln) (30 °C),self-splicing fitness (ln) (37 °C)
CUGUAGCAAUAUUACGUCCU,-3.57 ± 0.4,
CUGUAGCAAUAUUACGUGGG,-3.78 ± 0.22,-2.05 ± 0.18
CUGUAGCAAUAUUACGUUAC,-2.77 ± 0.34,-1.72 ± 0.32
CUUAAGCAAUAUUACGAAGG,-2.89 ± 0.17,-1.54 ± 0.24
CUUAAGCAAUAUUACGACAU,-3.434 ± 0.023,-2.11 ± 0.036
CUUAAGCAAUAUUACGAUCC,-3.31 ± 0.44,
CUUAAGCAAUAUUACGAUCG,-0.53 ± 0.082,0.874 ± 0.12
CUUAAGCAAUAUUACGAUGC,-3.42 ± 0.35,-2.1 ± 0.33
CUUAAGCAAUAUUACGAUGG,-1.17 ± 0.082,-0.43 ± 0.11
CUUAAGCAAUAUUACGAUUA,-3.71 ± 0.26,-2.72 ± 0.21
CUUAAGCAAUAUUACGCAAU,,-2.62 ± 0.44
CUUAAGCAAUAUUACGCACC,-1.86 ± 0.45,
CUUAAGCAAUAUUACGCCCU,-3.17 ± 0.32,-1.96 ± 0.43
CUUAAGCAAUAUUACGCCUA,-1.91 ± 0.38,
CUUAAGCAAUAUUACGCCUU,,-2.63 ± 0.39
CUUAAGCAAUAUUACGCGUC,-2.08 ± 0.12,-3.25 ± 0.23
CUUAAGCAAUAUUACGCUAA,-3.21 ± 0.39,-1.58 ± 0.3
CUUAAGCAAUAUUACGCUAC,-4.22 ± 0.42,-2.34 ± 0.36
CUUAAGCAAUAUUACGCUGG,-4.54 ± 0.32,-2.64 ± 0.18
CUUAAGCAAUAUUACGGAAG,-2.03 ± 0.17,-0.419 ± 0.14
CUUAAGCAAUAUUACGGAAU,-3.96 ± 0.31,-2.29 ± 0.31
CUUAAGCAAUAUUACGGAUU,-3.94 ± 0.32,-3.41 ± 0.47
CUUAAGCAAUAUUACGGCCC,-2.8 ± 0.4,
CUUAAGCAAUAUUACGGGGG,-3.65 ± 0.2,-1.26 ± 0.23
CUUAAGCAAUAUUACGGGUU,-2.65 ± 0.19,-3.2 ± 0.27
CUUAAGCAAUAUUACGGUAA,,-3.38 ± 0.37

Sequence,self-splicing fitness (ln) (30 °C),self-splicing fitness (ln) (37 °C)
CUUAAGCAAUAUUACGGUAU,-4.7 ± 0.34,-2.35 ± 0.22
CUUAAGCAAUAUUACGUAAC,-3.05 ± 0.24,-1.26 ± 0.2
CUUAAGCAAUAUUACGUAGA,-3.6 ± 0.22,-2.82 ± 0.34
CUUAAGCAAUAUUACGUAGC,-3.71 ± 0.23,
CUUAAGCAAUAUUACGUGAC,-1.91 ± 0.13,-2.06 ± 0.14
CUUAAGCAAUAUUACGUGCC,-4.6 ± 0.38,-1.53 ± 0.18
CUUCAGCAAUAUUACGAACA,-0.812 ± 0.18,-1.3 ± 0.21
CUUCAGCAAUAUUACGAAUG,-0.722 ± 0.065,-0.456 ± 0.093
CUUCAGCAAUAUUACGACGC,-0.697 ± 0.26,0.21 ± 0.28
CUUCAGCAAUAUUACGAGCU,-3.82 ± 0.29,-3.41 ± 0.33
CUUCAGCAAUAUUACGAGUC,,-2.56 ± 0.18
CUUCAGCAAUAUUACGAUGU,-3.67 ± 0.21,-2.07 ± 0.2
CUUCAGCAAUAUUACGCGAC,-2.88 ± 0.31,-1.75 ± 0.41
CUUCAGCAAUAUUACGCGGG,-3.7 ± 0.19,-2.61 ± 0.2
CUUCAGCAAUAUUACGGAAC,-2.45 ± 0.16,-2.12 ± 0.33
CUUCAGCAAUAUUACGGCGG,-2.02 ± 0.27,-1.25 ± 0.18
CUUCAGCAAUAUUACGGGCC,-1.78 ± 0.22,
CUUCAGCAAUAUUACGGGCG,-0.584 ± 0.076,-0.302 ± 0.098
CUUCAGCAAUAUUACGGUGU,-4.48 ± 0.21,-3.73 ± 0.25
CUUCAGCAAUAUUACGUAUU,-3.18 ± 0.17,-2.37 ± 0.2
CUUCAGCAAUAUUACGUCAG,-0.735 ± 0.054,-0.0836 ± 0.082
CUUCAGCAAUAUUACGUCAU,-3.34 ± 0.21,-3.76 ± 0.34
CUUCAGCAAUAUUACGUGUU,-3.34 ± 0.19,-2.72 ± 0.24
CUUCAGCAAUAUUACGUUCU,-4.03 ± 0.33,-2.26 ± 0.2
CUUGAGCAAUAUUACGACAU,-3.581 ± 0.028,-2.55 ± 0.041
CUUGAGCAAUAUUACGAGCG,-2.14 ± 0.1,-0.889 ± 0.09

Sequence,self-splicing fitness (ln) (30 °C),self-splicing fitness (ln) (37 °C)
CUUGAGCAAUAUUACGAGGC,-2.91 ± 0.26,-2.89 ± 0.27
CUUGAGCAAUAUUACGAGUA,-2.07 ± 0.37,-2.52 ± 0.32
CUUGAGCAAUAUUACGCACG,-3.3 ± 0.44,-2.48 ± 0.43
CUUGAGCAAUAUUACGCAUC,-3.14 ± 0.4,-2.75 ± 0.44
CUUGAGCAAUAUUACGCCCG,-2.41 ± 0.46,
CUUGAGCAAUAUUACGCGCG,-3.32 ± 0.29,-1.63 ± 0.25
CUUGAGCAAUAUUACGCUGA,-2.33 ± 0.25,-1.9 ± 0.23
CUUGAGCAAUAUUACGGCUC,,-1.67 ± 0.36
CUUGAGCAAUAUUACGGCUG,-1.55 ± 0.14,-1.46 ± 0.19
CUUGAGCAAUAUUACGGGAU,-2.99 ± 0.32,-2.63 ± 0.31
CUUGAGCAAUAUUACGGGUG,-1.24 ± 0.072,-0.485 ± 0.078
CUUGAGCAAUAUUACGGUGA,-3.34 ± 0.27,-2 ± 0.25
CUUGAGCAAUAUUACGUAAA,,-0.936 ± 0.2
CUUGAGCAAUAUUACGUACA,-1.97 ± 0.4,-1.77 ± 0.38
CUUGAGCAAUAUUACGUCAC,-3.37 ± 0.23,-2.73 ± 0.31
CUUGAGCAAUAUUACGUUUA,-3.56 ± 0.26,-2.88 ± 0.28
CUUUAGCAAUAUUACGAAGA,,-2.43 ± 0.34
CUUUAGCAAUAUUACGAGGC,-2.85 ± 0.41,-1.36 ± 0.26
CUUUAGCAAUAUUACGAUAC,-3.4 ± 0.39,-2.42 ± 0.45
CUUUAGCAAUAUUACGCACG,-1.41 ± 0.21,-0.277 ± 0.2
CUUUAGCAAUAUUACGCAGG,-2.83 ± 0.39,
CUUUAGCAAUAUUACGCCGA,-2.8 ± 0.48,-2.32 ± 0.39
CUUUAGCAAUAUUACGCGGU,-2.14 ± 0.19,-0.796 ± 0.22
CUUUAGCAAUAUUACGCGUC,-4.35 ± 0.3,-2.85 ± 0.22

# — the supplement of paper PMC7877785
